Drawing on paper PMC9699129, this text covers percent of MsFcγRIα-expressing HEK293 cells with MsIgM after 24 h incubation, percent of MsFcγRIα-expressing HEK293 cells with MsIgM after 6 h incubation and percent of MsFcγRIα-expressing HEK293 cells with MsIgM after 12 h incubation for one substance.

The target in assay [1] is MsFcγRIα-EGFP (largemouth bass FcγRIα fused to EGFP, expressed on transfected HEK293 cells) (largemouth bass (Micropterus salmoides)). The assay can be described thus: flow cytometry on cells; MsFcγRIα-EGFP-transfected HEK293 cells in serum-free DMEM, 20 μg/mL purified MsIgM added for 24 h at 37 °C; bound MsIgM detected with anti-MsIgM mAb MM06H and Alexa Fluor 647 goat anti-mouse IgG; n = 3.

For assay [2] the target is unchanged. The assay can be described thus: flow cytometry on cells; MsFcγRIα-EGFP-transfected HEK293 cells in serum-free DMEM, 20 μg/mL purified MsIgM added for 6 h at 37 °C; bound MsIgM detected with anti-MsIgM mAb MM06H and Alexa Fluor 647 goat anti-mouse IgG; n = 3.
The target is the same in assay [3]. The assay can be described thus: flow cytometry on cells; MsFcγRIα-EGFP-transfected HEK293 cells in serum-free DMEM, 20 μg/mL purified MsIgM added for 12 h at 37 °C; bound MsIgM detected with anti-MsIgM mAb MM06H and Alexa Fluor 647 goat anti-mouse IgG; n = 3.

Turning to “largemouth bass IgM (MsIgM), purified from serum (natural protein)”, the percent of MsFcγRIα-expressing HEK293 cells with MsIgM after 24 h incubation in assay [1] was 40.3%. In assay [2], this substance had a percent of MsFcγRIα-expressing HEK293 cells with MsIgM after 6 h incubation of 19.7%. This substance also had a percent of MsFcγRIα-expressing HEK293 cells with MsIgM after 12 h incubation in assay [3] of 26.3%.
